# B1: E3 ubiquitin-protein ligase pellino homolog 2 (Homo sapiens), Q9HAT8 (parent)
# chain: MFSPGQEEHCAPNKEPVKYGELVVLGYNGALPNGDRGRRKSRFALYKRPKANGVKPSTVHVISTPQASKAISCKGQHSISYTLSRNQTVVVEYTHDKDTDMFQVGRSTESPIDFVVTDTISGSQNTDEAQITQSTISRFACRIVCDRNEPYTARIFAAGFDSSKNIFLGEKAAKWKNPDGHMDGLTTNGVLVMHPRGGFTEESQPGVWREISVCGDVYTLRETRSAQQRGKLVESETNVLQDGSLIDLCGATLLWRTADGLFHTPTQKHIEALRQEINAARPQCPVGLNTLAFPSINRKEVVEEKQPWAYLSCGHVHGYHNWGHRSDTEANERECPMCRTVGPYVPLWLGCEAGFYVDAGPPTHAFTPCGHVCSEKSAKYWSQIPLPHGTHAFHAACPFCATQLVGEQNCIKLIFQGPID
# Variants of: B1
# Conditions: with irak1_human IRAK1, P51617
# Chain of irak1_human IRAK1, P51617 (P51617 whole entry, looked up): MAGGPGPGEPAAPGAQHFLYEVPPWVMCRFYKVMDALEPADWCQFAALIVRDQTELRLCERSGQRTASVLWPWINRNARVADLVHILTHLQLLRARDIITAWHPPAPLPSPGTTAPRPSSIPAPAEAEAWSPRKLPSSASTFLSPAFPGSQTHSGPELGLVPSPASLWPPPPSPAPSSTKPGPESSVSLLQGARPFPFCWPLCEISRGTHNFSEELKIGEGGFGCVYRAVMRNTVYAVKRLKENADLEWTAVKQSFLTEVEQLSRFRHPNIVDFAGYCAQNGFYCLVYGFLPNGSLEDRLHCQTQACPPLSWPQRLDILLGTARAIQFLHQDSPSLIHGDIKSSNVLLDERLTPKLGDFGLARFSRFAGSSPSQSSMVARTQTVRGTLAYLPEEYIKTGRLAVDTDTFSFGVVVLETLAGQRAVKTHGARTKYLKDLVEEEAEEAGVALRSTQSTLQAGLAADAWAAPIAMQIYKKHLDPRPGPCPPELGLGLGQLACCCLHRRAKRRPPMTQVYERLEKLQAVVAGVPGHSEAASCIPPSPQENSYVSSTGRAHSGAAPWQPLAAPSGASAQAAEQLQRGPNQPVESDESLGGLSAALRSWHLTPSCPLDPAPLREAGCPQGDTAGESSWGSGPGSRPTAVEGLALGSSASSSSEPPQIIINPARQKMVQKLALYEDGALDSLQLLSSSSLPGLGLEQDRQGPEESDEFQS
row,Variant,effect of a mutation on the interaction
1,MFSPGQEEHCAPNKEPVKYGELVVLGYNGALPNGDRGRRKSRFALYKRPKANGVKPSTVHVISTPQASKAISCKGQHSISYTLSRNQTVVVEYTHDKDTDMFQVGASTESPIDFVVTDTISGSQNTDEAQITQSTISRFACRIVCDRNEPYTARIFAAGFDSSKNIFLGEKAAKWKNPDGHMDGLTTNGVLVMHPRGGFTEESQPGVWREISVCGDVYTLRETRSAQQRGKLVESETNVLQDGSLIDLCGATLLWRTADGLFHTPTQKHIEALRQEINAARPQCPVGLNTLAFPSINRKEVVEEKQPWAYLSCGHVHGYHNWGHRSDTEANERECPMCRTVGPYVPLWLGCEAGFYVDAGPPTHAFTPCGHVCSEKSAKYWSQIPLPHGTHAFHAACPFCATQLVGEQNCIKLIFQGPID [R106A],disrupting interaction
2,MFSPGQEEHCAPNKEPVKYGELVVLGYNGALPNGDRGRRKSRFALYKRPKANGVKPSTVHVISTPQASKAISCKGQHSISYTLSRNQTVVVEYTHDKDTDMFQVGRSTESPIDFVVTDTISGSQNTDEAQITQSTISRFACRIVCDRNEPYTARIFAAGFDSSKNIFLGEKAAKWKNPDGHMDGLTAAGVLVMHPRGGFTEESQPGVWREISVCGDVYTLRETRSAQQRGKLVESETNVLQDGSLIDLCGATLLWRTADGLFHTPTQKHIEALRQEINAARPQCPVGLNTLAFPSINRKEVVEEKQPWAYLSCGHVHGYHNWGHRSDTEANERECPMCRTVGPYVPLWLGCEAGFYVDAGPPTHAFTPCGHVCSEKSAKYWSQIPLPHGTHAFHAACPFCATQLVGEQNCIKLIFQGPID [T187A;N188A],disrupting interaction

# Source: IntAct's records for PubMed 19081057
